Among the data in article PMC6459835, “The RNA binding activity of the first identified trypanosome protein with Z-DNA-binding domains” are Kd values, retold here.

Test in all cases: EMSA
Common to all, as to details: RBB50: 20 mM Tris-HCl pH 7.6, 50 mM KCl, 5 mM MgCl2, 100 mg/mL BSA (so in the source), 10% glycerol, 1 mM DTT, plus 100 mM KCl and 20 U RNasin; 20 ul, 30 min, RT …
For orientation: Mobility shift assays separate free from complexed probe on a gel.

Data set [1] deals with RBP7910 P164A (Trypanosoma brucei).
Data set [2] has as its system RBP7910 P77A (Trypanosoma brucei).
Data set [3] deals with RBP7910 R53A (Trypanosoma brucei).
Data set [4] relates to RBP7910 W188A (Trypanosoma brucei).
For data set [5], the system named is RBP7910 F167A (Trypanosoma brucei).
For data set [6], the system named is RBP7910 P76A (Trypanosoma brucei).
Data set [7] relates to RBP7910 W79A (Trypanosoma brucei).
In data set [8] the test system is RBP7910 T52A (Trypanosoma brucei).
Data set [9] relates to RBP7910 W56A (Trypanosoma brucei).

Usually Kd stands for a measure of binding affinity in units of concentration. As for gA6[14] (delta16G) gRNA with U-tail, the Kd in data set [1] is 0.27 nM; in data set [2], 0.3 nM; in [3], 0.81 nM; in data set [4], 0.55 nM; in [5] it was 0.3 nM; in data set [6], 0.18 nM. Besides, the dissociation constant (Kd) in data set [7] turned out to be 0.32 nM; in data set [8], 0.61 nM; in data set [9] it was 0.37 nM.
